Target: T1, purified, native RG1 protein produced in transfected BHK cells (human, UniProt Q9BUD6 27-331)
T1 construct: also called BHK-RG1; nRG1
T1 chain: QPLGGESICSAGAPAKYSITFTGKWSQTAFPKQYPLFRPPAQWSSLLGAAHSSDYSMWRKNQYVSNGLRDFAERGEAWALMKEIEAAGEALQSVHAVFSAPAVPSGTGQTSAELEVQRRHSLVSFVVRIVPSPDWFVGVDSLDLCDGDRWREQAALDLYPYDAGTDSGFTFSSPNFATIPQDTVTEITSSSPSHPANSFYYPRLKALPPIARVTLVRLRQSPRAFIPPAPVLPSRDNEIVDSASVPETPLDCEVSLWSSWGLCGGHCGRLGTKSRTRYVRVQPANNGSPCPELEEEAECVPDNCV
Assay: BIAcore SPR; mab captured on anti-human IgG Fc, soluble BHK-RG1 12.5-400 nM; 1:1 Langmuir fit
Description: Kinetic constants (KD, kₐ and kd) of mab binding to native RG1 protein were determined by BIAcore using a capture format in which soluble, native RG1 protein was bound to immobilized mab on a sensor chip. ImmunoPure rabbit anti-human IgGFc (Pierce, 31142) was covalently immobilized to the Sensor Chip CM5 (Biacore, BR-1000-12) using standard amine coupling methods. 100 ug/ml antibody diluted in 10 mm acetate, pH 4.0 was used at 5 ul/min. HBS-EP (Biacore, BR-1001-88) was used as mobile phase. Unreacted sites were blocked with ethanolamine. Mabs were diluted to 200 nM with HBS and 50 μl was injected per cycle at 10 ul/min. Serial dilutions of BHK-RG1 (12.5-400 nM) were bound to the immobilized mab. Dissociation kinetics were measured immediately after the antigen injection was completed at 20 μl/min for 8 minutes. The surface was regenerated following each cycle using 25 ul of 10 mm glycine, pH 1.8 and then washed with HBS.
Typically, five concentrations and a media control were run. Data were fit to a 1:1 Langmuir model using the software provided by the instrument manufacturer (BIAevaluation 3.0), and kinetic constants were calculated. Equilibrium constants were in the nanomolar range with favorable dissociation rates (10⁻⁴ s⁻¹).

- Kd: 8.4 nM
- koff: 0.00023 s⁻¹
- kon: 29000 M⁻¹ s⁻¹
B1: human RG1 monoclonal antibody B (antibody, V domains shown)
VH: EVQLVQSGGGLVHPGGSLRLSCAGSGFTFSSYVMHWLRQAPGKGLEWVSVIGTGGVTHYADSVKGRFTISRDNAKNSLYLQMNSLRAEDMAMYYCARWGYYGSGSYENDAFDIWGQGTMVTVSS
VL: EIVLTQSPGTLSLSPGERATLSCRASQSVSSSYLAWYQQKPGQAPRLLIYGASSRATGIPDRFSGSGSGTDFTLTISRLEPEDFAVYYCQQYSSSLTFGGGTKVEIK
notes: Hybridoma-derived human antibody with a kappa light chain; also called Mab B

Reference: patent US20100081795A1 (Bayer, published 2010)
